The assay addresses T1, Her-2/neu peptide on HLA-B*44:02 (human).
T1 peptide: EEYLVPQQGF
Description: cytokine release. On the procedure:
This example describes the charaterization of the epitope recognized by one of the T cell clones described above, 17D5. This clone recognized APC expressing the ICD or full-length Her-2/neu protein. The HLA-restriction element for the clone was determined to be HLA-B4402 by using a panel of allogenic cell lines matched at various HLA alleles with the T cell clone as APC in gamma interferon Elispot assays. This was confirmed by transduction of HLA-B44-negative, Her-2/neu-positive APC with a B4402-recombinant retrovirus to confer recognition. The region of the ICD recognized by the clone was narrowed by using recombinant retroviruses expressing a series of five fragments of the ICD to transduce B44+APC. […] Predicted B44-binding 9 mer and 10 mer peptides from within this fragment were chosen and synthesized. Of the 13 peptides synthesized, one was recognized by the clone and determined to be the epitope. […] The sequence of this naturally processed Her-2/neu epitope is: […] (SEQ ID NO: 3), position 1021-1030 in the Her-2/neu protein sequence.

The text below walks through data of patent US20020193329A1 (published 2002).

B1: TCR of the 17D5 T cell clone (TCR, V domains shown)
Valpha: AQSVAQPEDQVNVAEGNPLTVKCTYSVSGNPYLFWYVQYPNRGLQFLLKYITGDNLVKGSYGFEAEFNKSQTSFHLKKPSALVSDSALYFCAVRPNSGYSTLTFGKGTMLLVSP
Vbeta: EAQVTQNPRYLITVTGKKLTVTCSQNMNHEYMSWYRQDPGLGLRQIYYSMNVEVTDKGDVPEGYKVSRKEKRNFPLILESPSPNQTSLYFCASSLDWGGLAGGLGTDTQYFGPGTRLTVL
With B1, the binding result is reported as “recognises”.
